Measurements from patent publication US20220017591A1 (AstraZeneca / MedImmune, published 2022).
Each block holds one binder with its values, some of them ahead of it.

What was measured:
Assay in all cases: cell-based or functional assay
mouse RXFP1 = molecular target: T1, mouse RXFP1 (mouse, UniProt Q6R6I7 1-758)
T1 sequence (looked up): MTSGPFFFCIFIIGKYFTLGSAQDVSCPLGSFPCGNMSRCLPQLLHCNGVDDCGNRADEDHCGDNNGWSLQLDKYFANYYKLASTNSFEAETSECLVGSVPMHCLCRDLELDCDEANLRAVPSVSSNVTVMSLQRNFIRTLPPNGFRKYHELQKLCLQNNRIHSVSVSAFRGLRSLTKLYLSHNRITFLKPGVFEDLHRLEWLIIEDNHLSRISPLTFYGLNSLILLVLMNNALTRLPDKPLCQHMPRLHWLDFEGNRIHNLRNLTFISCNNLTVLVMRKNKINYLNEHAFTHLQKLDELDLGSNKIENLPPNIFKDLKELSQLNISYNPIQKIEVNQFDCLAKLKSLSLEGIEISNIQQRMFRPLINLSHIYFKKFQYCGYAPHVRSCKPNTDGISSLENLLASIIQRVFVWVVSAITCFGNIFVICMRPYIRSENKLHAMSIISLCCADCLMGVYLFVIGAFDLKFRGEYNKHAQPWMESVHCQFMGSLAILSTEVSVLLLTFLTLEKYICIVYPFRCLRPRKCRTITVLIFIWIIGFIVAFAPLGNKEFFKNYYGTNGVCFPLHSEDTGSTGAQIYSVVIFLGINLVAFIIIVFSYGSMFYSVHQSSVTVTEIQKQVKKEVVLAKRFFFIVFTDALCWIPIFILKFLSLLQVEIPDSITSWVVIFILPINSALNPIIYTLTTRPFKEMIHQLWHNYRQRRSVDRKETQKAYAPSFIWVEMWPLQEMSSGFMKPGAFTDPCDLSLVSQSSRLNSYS

human RXFP2 = human RXFP2 (human, UniProt Q8WXD0 1-754)
human RXFP2, sequence (Q8WXD0 whole entry): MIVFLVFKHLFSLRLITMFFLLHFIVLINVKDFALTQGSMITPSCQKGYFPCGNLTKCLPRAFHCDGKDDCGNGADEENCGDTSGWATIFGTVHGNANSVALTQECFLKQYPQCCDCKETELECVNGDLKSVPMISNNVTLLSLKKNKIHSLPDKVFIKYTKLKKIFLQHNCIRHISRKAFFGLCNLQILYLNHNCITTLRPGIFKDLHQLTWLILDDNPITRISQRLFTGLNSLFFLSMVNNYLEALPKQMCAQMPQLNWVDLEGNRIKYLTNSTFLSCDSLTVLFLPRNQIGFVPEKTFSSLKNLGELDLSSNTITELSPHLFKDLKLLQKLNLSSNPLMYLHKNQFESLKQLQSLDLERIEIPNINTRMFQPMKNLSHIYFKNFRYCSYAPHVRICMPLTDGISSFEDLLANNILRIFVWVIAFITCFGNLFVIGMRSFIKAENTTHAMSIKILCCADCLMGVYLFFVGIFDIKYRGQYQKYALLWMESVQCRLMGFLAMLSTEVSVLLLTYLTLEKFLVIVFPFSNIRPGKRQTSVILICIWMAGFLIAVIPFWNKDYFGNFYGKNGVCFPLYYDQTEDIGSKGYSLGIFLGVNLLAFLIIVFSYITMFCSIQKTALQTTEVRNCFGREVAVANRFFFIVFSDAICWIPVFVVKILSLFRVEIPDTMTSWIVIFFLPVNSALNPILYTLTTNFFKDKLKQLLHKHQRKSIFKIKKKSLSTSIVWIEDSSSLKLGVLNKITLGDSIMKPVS

human RXFP1 = molecular target: T2, human RXFP1 (human, UniProt Q9HBX9 1-757)
T2 sequence (looked up): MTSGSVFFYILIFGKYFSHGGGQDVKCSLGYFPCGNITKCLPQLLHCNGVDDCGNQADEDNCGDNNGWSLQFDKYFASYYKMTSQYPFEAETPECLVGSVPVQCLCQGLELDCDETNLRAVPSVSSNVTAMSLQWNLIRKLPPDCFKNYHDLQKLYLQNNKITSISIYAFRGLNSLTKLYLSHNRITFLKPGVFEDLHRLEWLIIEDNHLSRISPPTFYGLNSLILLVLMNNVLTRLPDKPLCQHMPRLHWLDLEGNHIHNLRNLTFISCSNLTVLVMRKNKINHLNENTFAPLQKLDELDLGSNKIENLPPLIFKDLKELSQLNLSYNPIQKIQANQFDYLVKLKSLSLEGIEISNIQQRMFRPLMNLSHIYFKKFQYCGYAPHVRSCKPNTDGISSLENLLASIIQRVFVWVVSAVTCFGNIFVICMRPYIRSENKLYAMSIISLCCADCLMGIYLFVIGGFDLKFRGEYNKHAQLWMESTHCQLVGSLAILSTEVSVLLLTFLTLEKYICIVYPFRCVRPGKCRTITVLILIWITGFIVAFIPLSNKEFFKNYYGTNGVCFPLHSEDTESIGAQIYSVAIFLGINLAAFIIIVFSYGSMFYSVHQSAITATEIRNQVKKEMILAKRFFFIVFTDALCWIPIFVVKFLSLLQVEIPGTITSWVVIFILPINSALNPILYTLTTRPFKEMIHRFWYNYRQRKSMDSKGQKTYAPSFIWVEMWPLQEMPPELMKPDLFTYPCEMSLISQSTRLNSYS

B1: RELAX0086 (Fc fusion)
chain 1: DKTHTCPPCPAPEFEGGPSVFLFPPKPKDTLMISRTPEVTCVVVDVSHEDPEVKFNWYVDGVEVHNAKTKPREEQYNSTYRVVSVLTVLHQDWLNGKEYKCKVSNKALPASIEKTISKAKGQPREPQVYTLPPCREEMTKNQVSLWCLVKGFYPSDIAVEWESNGQPENNYKTTPPVLDSDGSFFLYSKLTVDKSRWQQGNVFSCSVMHEALHNHYTQKSLSLSPGGGGGSGGGGSGGGGGSQLYSALANKCCHVGCTKRSLARFC
chain 2: DKTHTCPPCPAPEFEGGPSVFLFPPKPKDTLMISRTPEVTCVVVDVSHEDPEVKFNWYVDGVEVHNAKTKPREEQYNSTYRVVSVLTVLHQDWLNGKEYKCKVSNKALPASIEKTISKAKGQPREPQVCTLPPSREEMTKNQVSLSCAVKGFYPSDIAVEWESNGQPENNYKTTPPVLDSDGSFFLVSKLTVDKSRWQQGNVFSCSVMHEALHNHYTQKSLSLSPGGGGGSGGGGSGGGGSGGGGGSSWMEEVIKLCGRELVRAQIAICGMSTWS
EC50 mRXFP1 (M), cAMP assay (mouse RXFP1): 2.68e-11 M
EC50 hRXFP2 (M), cAMP assay (human RXFP2): 4.88e-08 M
EC50 hRXFP1 (M), cAMP assay (human RXFP1): 4.49e-11 M

B2: RELAX0085 (Fc fusion)
chain 1: DKTHTCPPCPAPEFEGGPSVFLFPPKPKDTLMISRTPEVTCVVVDVSHEDPEVKFNWYVDGVEVHNAKTKPREEQYNSTYRVVSVLTVLHQDWLNGKEYKCKVSNKALPASIEKTISKAKGQPREPQVYTLPPCREEMTKNQVSLWCLVKGFYPSDIAVEWESNGQPENNYKTTPPVLDSDGSFFLYSKLTVDKSRWQQGNVFSCSVMHEALHNHYTQKSLSLSPGGGGGSGGGGSGGGGSGGGGGSQLYSALANKCCHVGCTKRSLARFC
chain 2: DKTHTCPPCPAPEFEGGPSVFLFPPKPKDTLMISRTPEVTCVVVDVSHEDPEVKFNWYVDGVEVHNAKTKPREEQYNSTYRVVSVLTVLHQDWLNGKEYKCKVSNKALPASIEKTISKAKGQPREPQVCTLPPSREEMTKNQVSLSCAVKGFYPSDIAVEWESNGQPENNYKTTPPVLDSDGSFFLVSKLTVDKSRWQQGNVFSCSVMHEALHNHYTQKSLSLSPGAPAPAPAPAPAPAPAPAPAGSSWMEEVIKLCGRELVRAQIAICGMSTWS
EC50 mRXFP1 (M), cAMP assay (mouse RXFP1): 3.09e-11 M
EC50 hRXFP2 (M), cAMP assay (human RXFP2): 4.67e-08 M
EC50 hRXFP1 (M), cAMP assay (human RXFP1): 6.37e-11 M

B3: RELAX0105 (Fc fusion)
chain 1: B1 chain 1
chain 2: B2 chain 2
EC50 mRXFP1 (M), cAMP assay (mouse RXFP1): 1.49e-11 M
EC50 hRXFP2 (M), cAMP assay (human RXFP2): 3.33e-08 M
EC50 hRXFP1 (M), cAMP assay (human RXFP1): 7.12e-11 M

B6: RELAX0087 (Fc fusion)
chain 1: B2 chain 1
chain 2: DKTHTCPPCPAPEFEGGPSVFLFPPKPKDTLMISRTPEVTCVVVDVSHEDPEVKFNWYVDGVEVHNAKTKPREEQYNSTYRVVSVLTVLHQDWLNGKEYKCKVSNKALPASIEKTISKAKGQPREPQVCTLPPSREEMTKNQVSLSCAVKGFYPSDIAVEWESNGQPENNYKTTPPVLDSDGSFFLVSKLTVDKSRWQQGNVFSCSVMHEALHNHYTQKSLSLSPGGGGGSGGGGSGGGGGSSWMEEVIKLCGRELVRAQIAICGMSTWS
EC50 mRXFP1 (M), cAMP assay (mouse RXFP1): 3.48e-11 M
EC50 hRXFP2 (M), cAMP assay (human RXFP2): 3.63e-08 M
EC50 hRXFP1 (M), cAMP assay (human RXFP1): 4.89e-11 M

Now from value to binder:

EC50 mRXFP1 (M), cAMP assay (mouse RXFP1): 1.98e-11 M
EC50 hRXFP2 (M), cAMP assay (human RXFP2): 4.94e-08 M
EC50 hRXFP1 (M), cAMP assay (human RXFP1): 6.96e-11 M
B4: RELAX0106 (Fc fusion)
chain 1: DKTHTCPPCPAPEFEGGPSVFLFPPKPKDTLMISRTPEVTCVVVDVSHEDPEVKFNWYVDGVEVHNAKTKPREEQYNSTYRVVSVLTVLHQDWLNGKEYKCKVSNKALPASIEKTISKAKGQPREPQVYTLPPCREEMTKNQVSLWCLVKGFYPSDIAVEWESNGQPENNYKTTPPVLDSDGSFFLYSKLTVDKSRWQQGNVFSCSVMHEALHNHYTQKSLSLSPGGGGGSGGGGGSQLYSALANKCCHVGCTKRSLARFC
chain 2: B2 chain 2

EC50 mRXFP1 (M), cAMP assay (mouse RXFP1): 3.87e-11 M
EC50 hRXFP2 (M), cAMP assay (human RXFP2): 1.22e-07 M
EC50 hRXFP1 (M), cAMP assay (human RXFP1): 8.09e-11 M
B5: RELAX0107 (Fc fusion)
chain 1: DKTHTCPPCPAPEFEGGPSVFLFPPKPKDTLMISRTPEVTCVVVDVSHEDPEVKFNWYVDGVEVHNAKTKPREEQYNSTYRVVSVLTVLHQDWLNGKEYKCKVSNKALPASIEKTISKAKGQPREPQVYTLPPCREEMTKNQVSLWCLVKGFYPSDIAVEWESNGQPENNYKTTPPVLDSDGSFFLYSKLTVDKSRWQQGNVFSCSVMHEALHNHYTQKSLSLSPGGGGGGSQLYSALANKCCHVGCTKRSLARFC
chain 2: B2 chain 2

EC50 mRXFP1 (M), cAMP assay (mouse RXFP1): 1.11e-09 M
EC50 hRXFP2 (M), cAMP assay (human RXFP2): > 6.07e-08 M
EC50 hRXFP1 (M), cAMP assay (human RXFP1): 1.88e-09 M
B7: RELAX0110 (Fc fusion)
chain 1: B4 chain 1
chain 2: DKTHTCPPCPAPEFEGGPSVFLFPPKPKDTLMISRTPEVTCVVVDVSHEDPEVKFNWYVDGVEVHNAKTKPREEQYNSTYRVVSVLTVLHQDWLNGKEYKCKVSNKALPASIEKTISKAKGQPREPQVYTLPPCREEMTKNQVSLWCLVKGFYPSDIAVEWESNGQPENNYKTTPPVLDSDGSFFLYSKLTVDKSRWQQGNVFSCSVMHEALHNHYTQKSLSLSPGAAPAPAPAPAPAPAGSSWMEEVIKLCGRELVRAQIAICGMSTWS

EC50 mRXFP1 (M), cAMP assay (mouse RXFP1): 1.24e-09 M
EC50 hRXFP2 (M), cAMP assay (human RXFP2): > 6.06e-08 M
EC50 hRXFP1 (M), cAMP assay (human RXFP1): 1.93e-09 M
B8: RELAX0111 (Fc fusion)
chain 1: B5 chain 1
chain 2: B7 chain 2
